System: peptide library, one residue held at a place counted from the Y acceptor
Experiment: relative phosphorylation of the sub-library (ratio to the mean residue at this position); higher = residue favoured
Method in brief: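 Within 384-well plates, purified recombinant kinases phosphorylated biotinylated Tyr-centred peptide library mixtures over 90 min using 50 μM ATP spiked with γ-32P-ATP; each mixture fixed one residue at one position from −5 to +5. Streptavidin membrane capture, rinsing, phosphorimaging and ImageQuant gave the intensities. These were normalized per position to the sum of the 18 randomized residues (16 for the Ser/Thr-free library) and multiplied by that number.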

Sequence of MKK7, construct: Full length, human (O14733 whole entry, looked up): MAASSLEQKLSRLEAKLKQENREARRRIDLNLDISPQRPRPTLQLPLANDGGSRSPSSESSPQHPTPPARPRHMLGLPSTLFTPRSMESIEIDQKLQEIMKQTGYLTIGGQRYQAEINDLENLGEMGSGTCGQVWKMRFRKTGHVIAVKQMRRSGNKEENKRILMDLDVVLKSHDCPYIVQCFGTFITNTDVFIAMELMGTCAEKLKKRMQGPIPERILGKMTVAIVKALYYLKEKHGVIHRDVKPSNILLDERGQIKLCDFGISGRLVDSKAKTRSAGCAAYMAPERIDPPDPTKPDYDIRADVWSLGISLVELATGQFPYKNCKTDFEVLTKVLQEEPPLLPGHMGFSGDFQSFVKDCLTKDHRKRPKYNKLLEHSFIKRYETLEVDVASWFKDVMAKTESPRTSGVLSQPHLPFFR

MKK7, construct: Full length, human (from UniProt O14733)
relative phosphorylation
Conditions | at +1 | at +2 | at +3 | at +4 | at +5 | at -1 | at -2 | at -3 | at -4 | at -5
A fixed | 0.866 | 0.844 | 0.903 | 0.959 | 0.929 | 1.02 | 0.884 | 0.883 | 1.05 | 0.989
D fixed | 0.796 | 1.11 | 1.02 | 1.07 | 0.952 | 0.915 | 0.883 | 0.947 | 0.993 | 1.02
E fixed | 0.856 | 0.895 | 1.27 | 0.992 | 1.05 | 0.914 | 0.91 | 0.926 | 0.996 | 0.917
F fixed | 1.11 | 1.39 | 1.21 | 1.13 | 1.14 | 0.857 | 1.28 | 1.1 | 1.08 | 1.14
G fixed | 0.926 | 0.779 | 0.915 | 0.979 | 1.11 | 1.38 | 1.24 | 1.25 | 1.19 | 1.04
H fixed | 1 | 1.09 | 1.02 | 1.02 | 1.02 | 0.958 | 1.06 | 1.05 | 0.968 | 1.09
I fixed | 0.983 | 0.753 | 0.89 | 0.93 | 0.8 | 0.896 | 0.764 | 0.807 | 0.882 | 0.87
K fixed | 0.896 | 1.09 | 0.896 | 0.989 | 1.08 | 1.04 | 1.17 | 1.14 | 1.06 | 1.16
L fixed | 1.04 | 0.851 | 0.841 | 1.13 | 0.891 | 1.04 | 0.821 | 0.912 | 0.894 | 0.913
M fixed | 1.38 | 0.857 | 1.05 | 1.03 | 0.977 | 0.926 | 0.855 | 0.828 | 0.881 | 0.89
N fixed | 0.919 | 0.946 | 0.973 | 0.894 | 0.984 | 0.947 | 1.04 | 0.98 | 0.89 | 0.959
P fixed | 0.955 | 0.819 | 0.941 | 1.09 | 1.04 | 1.07 | 1.04 | 1.06 | 1.11 | 0.99
Q fixed | 0.873 | 0.929 | 1.09 | 0.881 | 0.991 | 0.951 | 0.891 | 1.07 | 0.974 | 0.952
R fixed | 1 | 1.09 | 1.01 | 0.97 | 1.13 | 1.12 | 1.29 | 1.24 | 1.13 | 1.16
V fixed | 0.918 | 0.844 | 0.822 | 0.828 | 0.73 | 0.85 | 0.803 | 0.794 | 0.844 | 0.802
W fixed | 1.49 | 1.72 | 1.14 | 1.11 | 1.18 | 1.12 | 1.07 | 1.01 | 1.06 | 1.1
pThr fixed | 0.894 | 1.05 | 0.876 | 1.08 | 1.01 | 1.09 | 0.859 | 1.08 | 1.05 | 1.11
pTyr fixed | 0.963 | 1.06 | 1.03 | 1.01 | 1.09 | 1.57 | 1.11 | 1.82 | 1.05 | 1.11

MST1R (from UniProt Q04912)
relative phosphorylation
Conditions | at +1 | at +2 | at +3 | at +4 | at +5 | at -1 | at -2 | at -3 | at -4 | at -5
A fixed | 0.871 | 0.845 | 0.68 | 0.963 | 1.06 | 0.744 | 0.976 | 0.932 | 1.03 | 0.978
D fixed | 0.356 | 0.803 | 0.406 | 0.696 | 0.865 | 1.38 | 1.03 | 1.2 | 1.02 | 0.894
E fixed | 0.55 | 0.767 | 0.281 | 0.622 | 0.874 | 1.01 | 0.864 | 1.06 | 0.966 | 0.851
F fixed | 1.62 | 0.938 | 1.28 | 1.1 | 0.582 | 1.06 | 0.794 | 0.996 | 1.1 | 1.1
G fixed | 0.645 | 0.821 | 0.766 | 1.17 | 1.25 | 0.665 | 1.38 | 1.21 | 1.25 | 1.13
H fixed | 1.3 | 0.906 | 0.968 | 1.11 | 1.03 | 1.12 | 0.938 | 0.991 | 0.847 | 0.989
I fixed | 1.51 | 1 | 2.14 | 0.923 | 0.473 | 1.36 | 0.957 | 0.801 | 0.85 | 0.932
K fixed | 0.618 | 1.14 | 0.612 | 0.921 | 1.66 | 0.806 | 1.04 | 1 | 1.08 | 1.13
L fixed | 1.32 | 1.15 | 1.67 | 0.924 | 0.626 | 1.29 | 0.903 | 0.937 | 1.04 | 1.07
M fixed | 1.15 | 0.99 | 1.32 | 1.1 | 0.715 | 0.904 | 0.685 | 0.845 | 0.941 | 0.974
N fixed | 0.594 | 1.13 | 0.492 | 0.82 | 1.23 | 1.25 | 0.978 | 1.01 | 0.796 | 0.864
P fixed | 0.672 | 0.967 | 1.17 | 1.03 | 1.57 | 0.768 | 1.31 | 1.09 | 1.16 | 1.07
Q fixed | 1.04 | 0.996 | 0.577 | 1.04 | 1.16 | 0.977 | 1.07 | 1.01 | 0.996 | 0.946
R fixed | 0.922 | 1.3 | 0.862 | 1.34 | 1.75 | 0.757 | 1.28 | 1.18 | 1.09 | 1.18
S fixed | 0.901 | 0.95 | 0.712 | 0.897 | 1.25 | 0.777 | 1.23 | 1.2 | 0.87 | 0.974
T fixed | 0.876 | 0.792 | 0.623 | 0.85 | 1.17 | 0.899 | 0.973 | 0.91 | 0.821 | 0.884
V fixed | 1.46 | 1.04 | 1.36 | 0.901 | 0.579 | 1.15 | 1.02 | 0.728 | 0.89 | 0.939
W fixed | 1.36 | 1.2 | 1.41 | 1.34 | 0.575 | 0.762 | 0.77 | 0.997 | 0.953 | 0.953
pThr fixed | 0.564 | 0.981 | 0.277 | 0.414 | 0.638 | 1.16 | 1.02 | 0.95 | 0.758 | 0.795
pTyr fixed | 1.73 | 1.79 | 0.651 | 1.11 | 0.728 | 2.14 | 1.1 | 1.13 | 1.04 | 0.922

Source: the supplement of paper PMC11136658
